Laboratory results from paper doi:10.1101/2024.01.23.576883 (bioRxiv, 2024).
One block for each binder: values may come before it.

Assays:
[1] = target: the molecule itself; assay: microfluidic diffusional sizing
[2] = target: T1, FUS-mscarlet3, released from MBP-FUS-mscarlet3-His6 by TEV protease (UniProt P35637 1-526); assay: fluorescence polarisation
T1 sequence: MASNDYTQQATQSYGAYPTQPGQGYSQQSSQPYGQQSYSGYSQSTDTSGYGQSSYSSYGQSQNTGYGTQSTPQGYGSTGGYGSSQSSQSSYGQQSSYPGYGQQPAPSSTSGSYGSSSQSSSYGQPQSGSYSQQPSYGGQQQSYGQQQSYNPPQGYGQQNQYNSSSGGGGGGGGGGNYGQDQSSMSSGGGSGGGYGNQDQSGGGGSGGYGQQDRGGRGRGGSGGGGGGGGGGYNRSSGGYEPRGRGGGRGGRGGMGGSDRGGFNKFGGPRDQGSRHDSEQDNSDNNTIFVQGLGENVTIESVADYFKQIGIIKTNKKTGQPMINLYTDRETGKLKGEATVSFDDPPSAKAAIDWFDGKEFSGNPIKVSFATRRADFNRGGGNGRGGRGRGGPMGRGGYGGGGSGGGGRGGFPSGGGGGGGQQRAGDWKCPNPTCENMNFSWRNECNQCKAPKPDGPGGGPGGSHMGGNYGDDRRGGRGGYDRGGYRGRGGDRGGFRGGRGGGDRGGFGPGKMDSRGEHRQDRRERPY

[3] = target: T2, HspB6-meGFP-His6 (human), O14558; assay: microfluidic diffusional sizing; conditions: remark: other sources report otherwise
T2 chain: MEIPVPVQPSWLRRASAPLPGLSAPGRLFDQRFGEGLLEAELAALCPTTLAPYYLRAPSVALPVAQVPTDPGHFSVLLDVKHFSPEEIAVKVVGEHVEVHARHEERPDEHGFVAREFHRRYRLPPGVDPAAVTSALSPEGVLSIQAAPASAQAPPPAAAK

B1: HspB5-meGFP-His6 (natural protein)
chain: MDIAIHHPWIRRPFFPFHSPSRLFDQFFGEHLLESDLFPTSTSLSPFYLRPPSFLRAPSWFDTGLSEMRLEKDRFSVNLDVKHFSPEELKVKVLGDVIEVHGKHEERQDEHGFISREFHRKYRIPADVDPLTITSSLSSDGVLTVNGPRKQVSGPERTIPITREEKPAVTAAPKK
binding result [1]: binds

binding result [2]: binds
B2: HspB4-meGFP-His6 (natural protein)
chain: MDVTIQHPWFKRTLGPFYPSRLFDQFFGEGLFEYDLLPFLSSTISPYYRQSLFRTVLDSGISEVRSDRDKFVIFLDVKHFSPEDLTVKVQDDFVEIHGKHNERQDDHGYISREFHRRYRLPSNVDQSALSCSLSADGMLTFCGPKIQTGLDATHAERAIPVSREEKPTSAPSS

stoichiometry N [3]: 2
B3: HspB6-meGFP-His6, O14558 1-160 (natural protein)
chain: MEIPVPVQPSWLRRASAPLPGLSAPGRLFDQRFGEGLLEAELAALCPTTLAPYYLRAPSVALPVAQVPTDPGHFSVLLDVKHFSPEEIAVKVVGEHVEVHARHEERPDEHGFVAREFHRRYRLPPGVDPAAVTSALSPEGVLSIQAAPASAQAPPPAAAK
